What was measured:
[1] = target: T1, hVISTA-ECD 6-His tag (human, UniProt Q9H7M9 33-193); assay: SPR, Ab on Protein A, hVISTA analyte, pH 6.9
T1 construct: also called monovalent hVISTA-ECD; human VISTA
Method: (§1) Further binding kinetic experiments were performed at various pHs on VISTA antibodies described herein by SPR as generally described in Example 9 above. Antibodies were normalized to 50 nM concentration in PBST pH 7.4 and captured on a Protein A CM5 chip (ID 4931) by injecting for 45 seconds at a 5 µL/min flow rate. An 8-point human VISTA titration ([…]) was prepared in PBST at pH 7.4, 6.9, 6.45, and 6.0. Titrations were injected over the captured antibodies for 180 seconds at 30 µL/min. Sensorgrams were fit to a 1:1 binding model in T200 evaluation software and the kinetic constants were reported.
(§2) Each table reports the data at one of the four tested pHs (7.4, 6.9, 6.45, and 6.0, respectively). The 8-point hVISTA titration used in these assays was chosen to provide increased confidence in kinetic values reported at neutral pH conditions. A relatively stringent cutoff for non-binding was applied in this assay. Certain progeny of P1-061029 antibody (P1-068757, ‘759, ‘765, ‘771, and ‘775) show no binding to hVISTA at micromolar concentrations at pH 7.4, while ‘761 and ‘767 show no binding to hVISTA at 100 nM at pH 7.4 but do show binding to hVISTA at micromolar concentrations.

[2] = target: T1, hVISTA-ECD 6-His tag; assay: SPR; kd at pH 6.9 over kd at pH 6.0 (head prints 7.4)
Method: as §1, §2

[3] = target: T1, hVISTA-ECD 6-His tag; assay: SPR, Ab on Protein A, hVISTA analyte, pH 6.45
[4] = target: T1, hVISTA-ECD 6-His tag; assay: SPR; KD at pH 6.9 over KD at pH 6.0 (head prints 7.4)
Method: as §1, §2

[5] = target: T1, hVISTA-ECD 6-His tag; assay: SPR; KD at pH 6.45 over KD at pH 6.0 (head prints 7.4)
[6] = target: T1, hVISTA-ECD 6-His tag; assay: SPR, Ab on Protein A, hVISTA analyte, pH 6.0
[7] = target: T1, hVISTA-ECD 6-His tag; assay: SPR; kd at pH 6.45 over kd at pH 6.0 (head prints 7.4)
Method: as §1, §2

T1 sequence (Q9H7M9 other isoform, or with tags, fused parts or gaps limits assumed): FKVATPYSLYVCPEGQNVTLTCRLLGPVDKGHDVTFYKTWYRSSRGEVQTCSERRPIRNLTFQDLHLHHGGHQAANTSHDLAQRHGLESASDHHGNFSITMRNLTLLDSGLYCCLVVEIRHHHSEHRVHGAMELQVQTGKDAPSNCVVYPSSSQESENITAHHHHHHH

Binder | Kd [1] [nM] | koff [1] [s⁻¹] | kon [1] [M⁻¹ s⁻¹] | 7.4 kd/ 6.0 kd [2] | Kd [3] [nM] | koff [3] [s⁻¹] | kon [3] [M⁻¹ s⁻¹] | 7.4 KD/ 6.0 KD [4] | 7.4 KD/ 6.0 KD [5] | Kd [6] [nM] | koff [6] [s⁻¹] | kon [6] [M⁻¹ s⁻¹] | 7.4 kd/ 6.0 kd [7]
P1-070890 (P1-068761_E30D_E55A) (antibody, human IgG1, kappa, V domains shown, also called P1-070890-3) VH: EVQLVESGGGLVQPGKSLRLSCAASGFTLDDEAMHWVRQAPGKGLEWVSGINWNSAEIGYADSVKGRFTISRDNAKNSLYLQMNSLRTEDTALYYCAKVPGYSHGWIDAEDVWGQGTMVTVSS VL: not shown | 4400 | 0.04 | 9000 | 4.9 | 130 | 0.032 | 240000 | 211 | 6.3 | 21 | 0.0081 | 390000 | 3.9
P1-070870 (P1-068761_E56N) (antibody, human IgG1, kappa, V domains shown, also called P1-070870-3) VH: EVQLVESGGGLVQPGKSLRLSCAASGFTLEDEAMHWVRQAPGKGLEWVSGINWNSENIGYADSVKGRFTISRDNAKNSLYLQMNSLRTEDTALYYCAKVPGYSHGWIDAEDVWGQGTMVTVSS VL: not shown | 10000 | 0.049 | 4900 | 7.9 | 150 | 0.012 | 80000 | 316 | 4.6 | 32 | 0.0063 | 200000 | 1.9
P1-070872 (P1-068761_H100G) (antibody, human IgG1, kappa, V domains shown, also called P1-070872-4) VH: EVQLVESGGGLVQPGKSLRLSCAASGFTLEDEAMHWVRQAPGKGLEWVSGINWNSEEIGYADSVKGRFTISRDNAKNSLYLQMNSLRTEDTALYYCAKVPGYSGGWIDAEDVWGQGTMVTVSS VL: not shown | 15000 | 0.028 | 1900 | 5.1 | 68 | 0.025 | 360000 | 1820 | 8.3 | 8.2 | 0.0056 | 680000 | 4.5
P1-070878 (P1-068761_E55A_E56N) (antibody, human IgG1, kappa, V domains shown, also called P1-070878-3) VH: EVQLVESGGGLVQPGKSLRLSCAASGFTLEDEAMHWVRQAPGKGLEWVSGINWNSANIGYADSVKGRFTISRDNAKNSLYLQMNSLRTEDTALYYCAKVPGYSHGWIDAEDVWGQGTMVTVSS VL: not shown | 9800 | 0.028 | 2900 | 4.5 | 160 | 0.012 | 78000 | 301 | 4.9 | 33 | 0.0063 | 190000 | 2
P1-070864 (P1-068761_E30D) (antibody, human IgG1, kappa, V domains shown, also called P1-070864-3) VH: EVQLVESGGGLVQPGKSLRLSCAASGFTLDDEAMHWVRQAPGKGLEWVSGINWNSEEIGYADSVKGRFTISRDNAKNSLYLQMNSLRTEDTALYYCAKVPGYSHGWIDAEDVWGQGTMVTVSS VL: not shown | 8100 | 0.034 | 4200 | 4.9 | 110 | 0.046 | 410000 | 523 | 7.4 | 15 | 0.0068 | 440000 | 6.8
P1-070868 (P1-068761_E55A) (antibody, human IgG1, kappa, V domains shown, also called P1-070868-6) VH: EVQLVESGGGLVQPGKSLRLSCAASGFTLEDEAMHWVRQAPGKGLEWVSGINWNSAEIGYADSVKGRFTISRDNAKNSLYLQMNSLRTEDTALYYCAKVPGYSHGWIDAEDVWGQGTMVTVSS VL: not shown | 6700 | 0.015 | 2300 | 6.5 | 36 | 0.0087 | 240000 | 1240 | 6.7 | 5.4 | 0.0023 | 430000 | 3.7

The next binders have a lower Kd [1] than those just listed; values first:

Kd [1] [nM] | koff [1] [s⁻¹] | kon [1] [M⁻¹ s⁻¹] | 7.4 kd/ 6.0 kd [2] | Kd [3] [nM] | koff [3] [s⁻¹] | kon [3] [M⁻¹ s⁻¹] | 7.4 KD/ 6.0 KD [4] | 7.4 KD/ 6.0 KD [5] | Kd [6] [nM] | koff [6] [s⁻¹] | kon [6] [M⁻¹ s⁻¹] | 7.4 kd/ 6.0 kd [7] | Binder
3700 | 0.031 | 8500 | 3.7 | 130 | 0.06 | 450000 | 222 | 8 | 17 | 0.0084 | 500000 | 7.1 | P1-070900 (P1-068761_E56N_H100G) (antibody, human IgG1, kappa, V domains shown, also called P1-070900-3) VH: EVQLVESGGGLVQPGKSLRLSCAASGFTLEDEAMHWVRQAPGKGLEWVSGINWNSENIGYADSVKGRFTISRDNAKNSLYLQMNSLRTEDTALYYCAKVPGYSGGWIDAEDVWGQGTMVTVSS VL: not shown
250 | 0.028 | 110000 | 7.2 | 68 | 0.0086 | 130000 | 14.9 | 4.1 | 17 | 0.0038 | 230000 | 2.3 | P1-070904 (P1-068767_E30D) (antibody, human IgG1, kappa, V domains shown, also called P1-070904-3) VH: EVQLVESGGGLVQPGKSLRLSCAASGFTLDDYAMHWVRQAPGKGLEWVSGIDWNSENIGYADSVKGRFTISRDNAKNSLYLQMNSLRTEDTALYYCAKVPGYSGGWIDAEDDWGQGTMVTVSS VL: not shown
240 | 0.012 | 51000 | 4.4 | 54 | 0.006 | 110000 | 23 | 5.2 | 10 | 0.0028 | 270000 | 2.2 | P1-070908 (P1-068767_E55A) (antibody, human IgG1, kappa, V domains shown, also called P1-070908-6) VH: EVQLVESGGGLVQPGKSLRLSCAASGFTLEDYAMHWVRQAPGKGLEWVSGIDWNSANIGYADSVKGRFTISRDNAKNSLYLQMNSLRTEDTALYYCAKVPGYSGGWIDAEDDWGQGTMVTVSS VL: not shown
230 | 0.011 | 48000 | 4.4 | 46 | 0.0049 | 110000 | 21.1 | 4.3 | 11 | 0.0024 | 230000 | 2 | P1-070914 (P1-068767_E30D_D52N) (antibody, human IgG1, kappa, V domains shown, also called P1-070914-3) VH: EVQLVESGGGLVQPGKSLRLSCAASGFTLDDYAMHWVRQAPGKGLEWVSGINWNSENIGYADSVKGRFTISRDNAKNSLYLQMNSLRTEDTALYYCAKVPGYSGGWIDAEDDWGQGTMVTVSS VL: not shown
230 | 0.0093 | 41000 | 4.8 | 35 | 0.004 | 120000 | 35.1 | 5.4 | 6.5 | 0.0019 | 300000 | 2.1 | P1-070916 (P1-068767_D52N_E55A) (antibody, human IgG1, kappa, V domains shown, also called P1-070916-6) VH: EVQLVESGGGLVQPGKSLRLSCAASGFTLEDYAMHWVRQAPGKGLEWVSGINWNSANIGYADSVKGRFTISRDNAKNSLYLQMNSLRTEDTALYYCAKVPGYSGGWIDAEDDWGQGTMVTVSS VL: not shown
220 | 0.0084 | 38000 | 4.4 | 31 | 0.0039 | 130000 | 36.5 | 5.1 | 6 | 0.0019 | 310000 | 2.1 | P1-070906 (P1-068767_D52N) (antibody, human IgG1, kappa, V domains shown, also called P1-070906-6) VH: EVQLVESGGGLVQPGKSLRLSCAASGFTLEDYAMHWVRQAPGKGLEWVSGINWNSENIGYADSVKGRFTISRDNAKNSLYLQMNSLRTEDTALYYCAKVPGYSGGWIDAEDDWGQGTMVTVSS VL: not shown
142 | 0.00832 | 58700 | 4.1 | 16.2 | 0.00309 | 190000 | 52.4 | 6 | 2.71 | 0.00202 | 745000 | 1.5 | P1-068761 (antibody, human IgG1, kappa, also called P1-068761-20) heavy: EVQLVESGGGLVQPGKSLRLSCAASGFTLEDEAMHWVRQAPGKGLEWVSGINWNSEEIGYADSVKGRFTISRDNAKNSLYLQMNSLRTEDTALYYCAKVPGYSHGWIDAEDVWGQGTMVTVSSASTKGPSVFPLAPSSKSTSGGTAALGCLVKDYFPEPVTVSWNSGALTSGVHTFPAVLQSSGLYSLSSVVTVPSSSLGTQTYICNVNHKPSNTKVDKRVEPKSCDKTHTCPPCPAPEAEGAPSVFLFPPKPKDTLMISRTPEVTCVVVDVSHEDPEVKFNWYVDGVEVHNAKTKPREEQYNSTYRVVSVLTVLHQDWLNGKEYKCKVSNKALPAPIEKTISKAKGQPREPQVYTLPPSREEMTKNQVSLTCLVKGFYPSDIAVEWESNGQPENNYKTTPPVLDSDGSFFLYSKLTVDKSRWQQGNVFSCSVMHEALHNHYTQKSLSLSPG light: not shown

From patent US20230192860A1 (Bristol-Myers Squibb, published 2023)
